B1: Androgen receptor (Homo sapiens), P10275 (parent)
chain: MEVQLGLGRVYPRPPSKTYRGAFQNLFQSVREVIQNPGPRHPEAASAAPPGASLLLLQQQQQQQQQQQQQQQQQQQQQQQETSPRQQQQQQGEDGSPQAHRRGPTGYLVLDEEQQPSQPQSALECHPERGCVPEPGAAVAASKGLPQQLPAPPDEDDSAAPSTLSLLGPTFPGLSSCSADLKDILSEASTMQLLQQQQQEAVSEGSSSGRAREASGAPTSSKDNYLGGTSTISDNAKELCKAVSVSMGLGVEALEHLSPGEQLRGDCMYAPLLGVPPAVRPTPCAPLAECKGSLLDDSAGKSTEDTAEYSPFKGGYTKGLEGESLGCSGSAAAGSSGTLELPSTLSLYKSGALDEAAAYQSRDYYNFPLALAGPPPPPPPPHPHARIKLENPLDYGSAWAAAAAQCRYGDLASLHGAGAAGPGSGSPSAAASSSWHTLFTAEEGQLYGPCGGGGGGGGGGGGGGGGGGGGGGGEAGAVAPYGYTRPPQGLAGQESDFTAPDVWYPGGMVSRVPYPSPTCVKSEMGPWMDSYSGPYGDMRLETARDHVLPIDYYFPPQKTCLICGDEASGCHYGALTCGSCKVFFKRAAEGKQKYLCASRNDCTIDKFRRKNCPSCRLRKCYEAGMTLGARKLKKLGNLKLQEEGEASSTTSPTEETTQKLTVSHIEGYECQPIFLNVLEAIEPGVVCAGHDNNQPDSFAALLSSLNELGERQLVHVVKWAKALPGFRNLHVDDQMAVIQYSWMGLMVFAMGWRSFTNVNSRMLYFAPDLVFNEYRMHKSRMYSQCVRMRHLSQEFGWLQITPQEFLCMKALLLFSIIPVDGLKNQKFFDELRMNYIKELDRIIACKRKNPTSCSRRFYQLTKLLDSVQPIARELHQFTFDLLIKSHMVSVDFPEMMAEIISVQVPKILSGKVKPIYFHTQ
partner: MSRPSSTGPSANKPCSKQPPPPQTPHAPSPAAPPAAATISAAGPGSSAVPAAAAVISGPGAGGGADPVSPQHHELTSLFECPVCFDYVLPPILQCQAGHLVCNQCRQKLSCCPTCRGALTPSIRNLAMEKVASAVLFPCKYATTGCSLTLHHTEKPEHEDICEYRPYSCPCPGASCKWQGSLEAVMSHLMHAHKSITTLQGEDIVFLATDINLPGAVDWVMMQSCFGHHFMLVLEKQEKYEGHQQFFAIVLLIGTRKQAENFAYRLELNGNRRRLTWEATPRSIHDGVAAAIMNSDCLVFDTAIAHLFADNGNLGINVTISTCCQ

Variants of: B1
Details: with siah2_mouse Siah2, Q06986

Effect of a mutation on the interaction, decreasing interaction:
T878A
L702H
F755L
R727L
H875Y
V716M
V731M
Q799E
